Measurements from patent publication US20200397886A1.

Legend:
[1] = biological target: DS-Cav1-foldon-I53-50 nanostructure (respiratory syncytial virus (RSV)); test: SPR after heat stress of the antigen (70 °C, 1 h); 50 nM DS-Cav1
[2] = biological target: DS-Cav1-foldon-I53-50A (respiratory syncytial virus (RSV)); test: as above

D25 monoclonal antibody
binding signal retained after 1 hour at 70 °C [1]: 80%
binding signal retained after 1 hour at 70 °C [2]: 50%
